Tested on: human ovarian cancer cell line SKOV3
Experiment: Cell proliferation test by dispersing SKOV3 cells with growth factors (Experimental Example 4)
Assay type: cell-based
Conditions: 10 days
Description: By a method similar to the preparation method of medium composition in Analysis Example 1, a medium composition containing 10 (v/v) % FBS, and 0.03 (w/v) % of low-molecular agar in DMEM (manufactured by Wako Pure Chemical Industries, Ltd.) was prepared.
Then, human ovarian cancer cell line SKOV3 (manufactured by DS PHARMA BIOMEDICAL CO., LTD.) was suspended in the above-mentioned medium composition containing low-molecular agar at 37,000 cells/mL, and dispensed to the wells of a 96 well flat plane ultra-low attachment surface microplate (manufactured by Corning Incorporated, #3474) at 135 μL per 1 well. The plate was stood in a CO2 incubator (37° C., 5% CO2), and a growth factor was added the next day. A similar operation was performed with 10 (v/v) % FBS-containing DMEM free of low-molecular agar. As a growth factor, human heparin bindability epithelial cell growth factor (hHB-EGF) (manufactured by PeproTech, Inc.) at a final concentration of 30 ng/mL or 100 ng/mL, human epithelial cell growth factor (hEGF) (manufactured by PeproTech, Inc.) and human transforming growth factor α (hTGFα) (manufactured by PeproTech, Inc.) each at a final concentration of 1 ng/mL, 3 ng/mL or 10 ng/mL were added by 15 μL per 1 well.
Successively, the plate was cultured in a standing state in a CO2 incubator (37° C., 5% CO2) for 10 days. As a negative control, DMEM in an amount equal to that of a growth factor was added. CellTiter-Glo Luminescent Cell Viability Assay (manufactured by Promega) (100 μL) was added to the cell culture medium after culturing for 10 days, stood for 10 min at room temperature, and the amount of luminescence was measured by a microplate reader (“FlexStation 3”, manufactured by Molecular Devices) and according to the protocol recommended by Promega. The amount of luminescence of the medium composition alone was subtracted, whereby the number of viable cells was measured.
The relative cell number when the amount of luminescence of the negative control is 1 was determined from the amount of luminescence (corresponding to the number of SKOV3 cells) after culturing for 10 days after the addition of the growth factor, and shown in Table 11.

| Molecule | relative cell number (negative control = 1) (growth factor 30 ng/mL, low-molecular agar 0 (w/v)%) | relative cell number (negative control = 1) (growth factor 30 ng/mL, low-molecular agar 0.03 (w/v)%) | relative cell number (negative control = 1) (growth factor 100 ng/mL, low-molecular agar 0 (w/v)%) | relative cell number (negative control = 1) (growth factor 100 ng/mL, low-molecular agar 0.03 (w/v)%) | relative cell number (negative control = 1) (growth factor 1 ng/mL, low-molecular agar 0 (w/v)%) | relative cell number (negative control = 1) (growth factor 1 ng/mL, low-molecular agar 0.03 (w/v)%) | relative cell number (negative control = 1) (growth factor 3 ng/mL, low-molecular agar 0 (w/v)%) | relative cell number (negative control = 1) (growth factor 3 ng/mL, low-molecular agar 0.03 (w/v)%) | relative cell number (negative control = 1) (growth factor 10 ng/mL, low-molecular agar 0 (w/v)%) | relative cell number (negative control = 1) (growth factor 10 ng/mL, low-molecular agar 0.03 (w/v)%) |
| --- | --- | --- | --- | --- | --- | --- | --- | --- | --- | --- |
| hHB-EGF: human heparin bindability epithelial cell growth factor (PeproTech) (protein, UniProt Q99075 63-148, looked up) Heparin-binding EGF-like …: DLQEADLDLLRVTLSSKPQALATPNKEEHGKRKKKGKGLGKKRDPCLRKYKDFCIHGECKYVKELRAPSCICHPGYHGERCHGLSL | 1.358 | 1.774 | 1.451 | 1.748 |  |  |  |  |  |  |
| hEGF: human epithelial cell growth factor (PeproTech) (protein, UniProt P01133 23-1207, looked up, Pro-epidermal growth factor) Pro-epidermal growth factor: PQHWSCPEGTLAGNGNSTCVGPAPFLIFSHGNSIFRIDTEGTNYEQLVVDAGVSVIMDFHYNEKRIYWVDLERQLLQRVFLNGSRQERVCNIEKNVSGMAINWINEEVIWSNQQEGIITVTDMKGNNSHILLSALKYPANVAVDPVERFIFWSSEVAGSLYRADLDGVGVKALLETSEKITAVSLDVLDKRLFWIQYNREGSNSLICSCDYDGGSVHISKHPTQHNLFAMSLFGDRIFYSTWKMKTIWIANKHTGKDMVRINLHSSFVPLGELKVVHPLAQPKAEDDTWEPEQKLCKLRKGNCSSTVCGQDLQSHLCMCAEGYALSRDRKYCEDVNECAFWNHGCTLGCKNTPGSYYCTCPVGFVLLPDGKRCHQLVSCPRNVSECSHDCVLTSEGPLCFCPEGSVLERDGKTCSGCSSPDNGGCSQLCVPLSPVSWECDCFPGYDLQLDEKSCAASGPQPFLLFANSQDIRHMHFDGTDYGTLLSQQMGMVYALDHDPVENKIYFAHTALKWIERANMDGSQRERLIEEGVDVPEGLAVDWIGRRFYWTDRGKSLIGRSDLNGKRSKIITKENISQPRGIAVHPMAKRLFWTDTGINPRIESSSLQGLGRLVIASSDLIWPSGITIDFLTDKLYWCDAKQSVIEMANLDGSKRRRLTQNDVGHPFAVAVFEDYVWFSDWAMPSVMRVNKRTGKDRVRLQGSMLKPSSLVVVHPLAKPGADPCLYQNGGCEHICKKRLGTAWCSCREGFMKASDGKTCLALDGHQLLAGGEVDLKNQVTPLDILSKTRVSEDNITESQHMLVAEIMVSDQDDCAPVGCSMYARCISEGEDATCQCLKGFAGDGKLCSDIDECEMGVPVCPPASSKCINTEGGYVCRCSEGYQGDGIHCLDIDECQLGEHSCGENASCTNTEGGYTCMCAGRLSEPGLICPDSTPPPHLREDDHHYSVRNSDSECPLSHDGYCLHDGVCMYIEALDKYACNCVVGYIGERCQYRDLKWWELRHAGHGQQQKVIVVAVCVVVLVMLLLLSLWGAHYYRTQKLLSKNPKNPYEESSRDVRSRRPADTEDGMSSCPQPWFVVIKEHQDLKNGGQPVAGEDGQAADGSMQPTSWRQEPQLCGMGTEQGCWIPVSSDKGSCPQVMERSFHMPSYGTQTLEGGVEKPHSLLSANPLWQQRALDPPHQMELTQ |  |  |  |  | 1.380 | 1.413 | 1.392 | 1.745 | 1.678 | 1.984 |

From patent publication US10914725B2, “Culture medium additive, culture medium composition, and method for culturing cells or tissue using same” (NISSAN CHEMICAL INDUSTRIES, LTD., priority 2015, dated 2021)
